Consider one molecule from patent US20210045419A1 (UNIVERSITY OF MANITOBA, published 2021).

This experiment concerns the target T1, bitter taste receptor T2R4 (UniProt Q9NYW5 1-299, limits assumed).
T1 sequence (looked up): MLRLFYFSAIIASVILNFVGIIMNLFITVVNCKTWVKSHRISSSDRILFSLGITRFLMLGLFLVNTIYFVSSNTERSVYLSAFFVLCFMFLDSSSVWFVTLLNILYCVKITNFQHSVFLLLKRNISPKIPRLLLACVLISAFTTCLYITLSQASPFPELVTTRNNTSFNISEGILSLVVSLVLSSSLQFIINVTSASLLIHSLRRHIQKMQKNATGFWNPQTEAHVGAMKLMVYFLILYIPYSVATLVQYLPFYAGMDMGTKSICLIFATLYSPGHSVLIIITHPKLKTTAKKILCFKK
Kind of experiment: cell-based or functional assay.

As for AGDDAPRAVF [AGDDAPRAVF (SEQ ID No:5)], the “IC50, peptide and quinine (1 mM) competition calcium mobilization assay on T2R4-expressing HEK293T cells” value amounted to 85 µM.
